# Laboratory results taken from patent publication US20190374607A1.
# Target: chemokine (C-X-C) motif receptor (CXCR) 4 (UniProt P61073)
# Assay: cell-based or functional assay
# Sequence of chemokine (C-X-C) motif receptor (CXCR) 4 (P61073 whole entry): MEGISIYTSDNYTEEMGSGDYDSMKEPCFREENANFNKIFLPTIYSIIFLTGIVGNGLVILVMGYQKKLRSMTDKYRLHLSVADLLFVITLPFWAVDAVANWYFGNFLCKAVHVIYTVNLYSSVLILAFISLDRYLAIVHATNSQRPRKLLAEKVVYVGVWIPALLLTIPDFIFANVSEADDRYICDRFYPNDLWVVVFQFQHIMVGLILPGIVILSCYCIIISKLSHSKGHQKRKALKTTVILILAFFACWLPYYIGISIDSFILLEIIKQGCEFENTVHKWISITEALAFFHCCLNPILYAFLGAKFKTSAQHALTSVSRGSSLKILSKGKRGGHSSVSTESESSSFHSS
"EC50, inhibition of thrombin-mediated hyper-permeability of hPPAEC (t=255 min) [nM]",concentration at which thrombin-mediated hPPAEC barrier impairment was affected (t=255 min) [nM],Substance
0.05 to 0.5,,CXCL12 K27A/R41A/R47A (from UniProt P48061 22-89) (ligand)
0.5 to 50,,CXCL12 R47E (from UniProt P48061 22-89) (ligand)
0.05 to 0.5,,CXCL12β (from UniProt P48061 22-93) (ligand)
,50,"Locked dimer CXCL122 (constitutively dimeric CXCL12 variant, L36C/A65C) (from UniProt O62657 22-89) (ligand)"
